For experiment [1], the target named is T1, human BCMA expressed on cells (human, UniProt Q02223 1-184).
T1 construct: the cell line is named under assay; also called wildtype human BCMA
T1 sequence: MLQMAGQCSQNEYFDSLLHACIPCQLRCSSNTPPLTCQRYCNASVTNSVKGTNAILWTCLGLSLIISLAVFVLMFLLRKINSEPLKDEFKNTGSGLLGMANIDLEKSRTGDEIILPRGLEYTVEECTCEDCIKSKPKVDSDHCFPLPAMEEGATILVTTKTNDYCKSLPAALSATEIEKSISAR
The experiment in a line: flow cytometry, hybridoma supernatant, HEK293T cells stably expressing human BCMA.

The target of experiment [2] is T2, His-tagged human BCMA (Acro Biosystems, Cat. #BCA-H522y) (human, UniProt Q02223 1-54).
T2 construct: also called huBCMA; P1; not shown: His tag
T2 sequence: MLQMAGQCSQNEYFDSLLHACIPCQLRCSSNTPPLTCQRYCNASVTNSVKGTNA
The experiment is described as follows: ELISA, IgG purified from hybridoma supernatant, coated His-tagged antigen. For orientation: An ELISA detects its analyte on a solid surface through an enzyme-linked reagent.

Experiment [3] deals with T3, His-tagged mouse BCMA (Acro Biosystems, BCA-M52H3) (mouse, UniProt O88472 1-49).
T3 construct: Bought protein; not shown: His tag
T3 chain: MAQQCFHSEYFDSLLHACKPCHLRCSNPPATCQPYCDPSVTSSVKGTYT
The description is as above.

Experiment [4] addresses T4, His-tagged cynomolgous macaque BCMA (Acro Biosystems, BCA-C52H7) (cynomolgus macaque, UniProt Q02223 1-54 (human entry)).
T4 construct: Bought protein; also called cyno BCMA; CyBCMA; not shown: His tag
The experiment is described as follows: ELISA, hybridoma supernatant, coated His-tagged antigen.

Experiment [5] addresses T2, His-tagged human BCMA (Acro Biosystems, …). The experiment is described as above.
Experiment [6] addresses T3, His-tagged mouse BCMA (Acro Biosystems, …). The experiment is described as above.
Experiment [7] has as its target T5, Human BCMA-His (Sino Biological, 10620-H08H) (human, UniProt Q02223 1-54).
T5 construct: not shown: His tag
T5 sequence: T2 sequence
The experiment in a line: ELISA, coated Human BCMA-His.

In experiment [8] the target is T6, recombinant his-tagged human TACI (Sinobiological cat #11937-H08H) (human, UniProt O14836 1-165).
T6 construct: Bought protein; also called Human TACI-His; huTACI; not shown: His tag
T6 sequence: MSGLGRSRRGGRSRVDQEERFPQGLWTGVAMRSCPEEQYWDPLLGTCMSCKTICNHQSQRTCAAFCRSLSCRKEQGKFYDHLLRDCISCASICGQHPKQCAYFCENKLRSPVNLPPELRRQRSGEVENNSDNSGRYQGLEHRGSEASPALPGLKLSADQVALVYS
The experiment in a line: ELISA, coated Human TACI-His.

For experiment [9], the target named is T2, His-tagged human BCMA (Acro Biosystems, …). The experiment in a line: BLI, IgG on HFC tip, His-tagged human BCMA 300-37.5 nM.
The target in experiment [10] is T7, Cyno TACI-His (Sino Biological, 90976-C08H) (cynomolgus macaque, UniProt G7PTR7 1-165).
T7 construct: Bought protein; also called cynomolgous macaque TACI; CyTACI
T7 sequence: T6 sequence with F21S, T52A, A64T, S70N, K77R, L139S, V160L
The experiment in a line: BLI, IgG on HFC tip, His-tagged cynomolgus TACI 300-37.5 nM. Background: BLI is a label-free optical method that tracks binding on a fibre tip over time.

The target of experiment [11] is T1, human BCMA expressed on cells. The experiment is described as follows: flow cytometry, fixed RPMI 8226 cells (BCMA+, TACI+: the cells carry both targets). (In general: In flow cytometry, cells or beads pass a laser one at a time.)
The target of experiment [12] is T8, Human HER3-His (Sino Biological, 10201-H08H) (human, UniProt P21860 20-643).
T8 construct: Specificity control; also called Human HERS-His
The experiment is described as follows: ELISA, coated His-tagged antigen.

Experiment [13] has as its target T1, human BCMA expressed on cells. The experiment in a line: flow cytometry, H929 cells (BCMA+).
Experiment [14] deals with T4, His-tagged cynomolgous macaque BCMA …. The experiment is described as follows: ELISA, coated Cyno BCMA-His.
The target in experiment [15] is T7, Cyno TACI-His (Sino Biological, …). The experiment is described as follows: ELISA, coated Cyno TACI-His.
Experiment [16] concerns the target T6, recombinant his-tagged human TACI …. The experiment is described as follows: BLI, IgG on HFC tip, His-tagged human TACI 300-37.5 nM.
The target of experiment [17] is T4, His-tagged cynomolgous macaque BCMA …. The experiment is described as follows: BLI, IgG on HFC tip, His-tagged cynomolgus BCMA 300-37.5 nM.
Experiment [18] shares this target. The experiment in a line: BLI (Gator), antibody loaded on HFC biosensor, His-tagged antigen as analyte.
Experiment [19] addresses T2, His-tagged human BCMA (Acro Biosystems, …). The description is as above.
Experiment [20] concerns the target T6, recombinant his-tagged human TACI …. Described as above.

Substitutions are numbered along the chain they refer to.

Consider six molecules from US20230374147A1 (HUMMINGBIRD BIOSCIENCE PTE, published 2023).

B1: 539-SP7-F4 (antibody produced by the hybridoma) (antibody, V domains shown)
VH: EVQLQQSGPELVKPGASMKISCKASGYSFTGYIMNWVKQSHGKNLEWIGLINPYNGDSIYNQKFKGKATLTVDKSSSTAYMELFSLTSEDSTVYYCAAGEEFAYWGQGTLVTVSA
VL: DIQMTQTSSSLSASLGDRVTISCRASQDISIYLNWFQQKPDGTVKLLIYFTSRLHPGVPSRFSASGSGTDYSLTISHLEHEDIATYFCQQGNTLPRTFGGGTKVELK
notes: Mouse antibody from B cell hybridoma (culture supernatant or IgG purified from it)
Regarding B1, the “% Parent (percent positive cells)” value in [1] is 63.8%. The values for the 50% effective concentration (EC50) in [2] and in experiment [3] were 0.0182 µg/mL and 14.6 µg/mL, respectively. Moreover, the “ELISA values (OD 450 nm)” value was 2.35 OD in [4], 0.893 OD in experiment [5] and 0.318 OD in experiment [6].

B2: 538-SP5-B10 (antibody produced by the hybridoma) (antibody, V domains shown)
VH: EVQLQQSGPELVKPGASVKMSCKASGYTFTSYVMHWVKQKPGRGLEWIAYILPFNDVTKYNEKFKGKATLTSDKSSNTAYMELSSLTSEDSAVYYCARWEWDDGYFDYWGQGTTLTVSS
VL: DAVMTQTPLSLPVSLGDQASISCRSSQSLENSNGNTYLNWYLQKPGQSPQLLIYRVSNRFSGVLDRFSGSGSGTDFTLKISRVEAEDLGVYFCLQVSHVPFTFGAGTKLELK
notes: as for B1
For the molecule B2, the “% Parent (percent positive cells)” value in experiment [1] worked out at 70.8%. Moreover, the half-maximal effective concentration (EC50) worked out at 0.0358 µg/mL in experiment [2] and 21 µg/mL in experiment [3]. Also, the “ELISA values (OD 450 nm)” value was 2.44 OD in experiment [4], 0.812 OD in experiment [5] and 0.247 OD in experiment [6].

B3: 539-SP1-C8 (antibody produced by the hybridoma) (antibody, V domains shown)
VH: EVQLQQSGPELVKPGSSVKMSCKASGYTFTNYVMHWVKQKPGQGLEWIGYILPYNDGTKYNEKFKGKATLTSDKSSSTAYMEFSVLTSEDSAVYYCARYDYEGSFDYWGQGTALTVSS
VL: DIQMTQTTSSLSASLGDRVTISCRASQDISNYLNWYQQKPDGTVKLLMCYTSRLHSGVPSRFSGSGSGTDFSLTISNLEQEDIATYFCQQGNTFPPTFGGGTKLEIK
notes: as for B1
As to B3, the “% Parent (percent positive cells)” value in [1] worked out at 56.5%. In addition, the results for the concentration giving a half-maximal response (EC50) in [2] and in [3] were 0.0299 µg/mL and 9.19 µg/mL, respectively. For the same molecule, the “ELISA values (OD 450 nm)” value in experiment [4] came to 2.04 OD; in [5] it was 0.686 OD; in experiment [6], 0.339 OD.

B4: 1C8-610 hIgG1 (antibody, V domains shown)
VH: QVQLVQSGAEVKKPGASVKVSCKASGYTFTNYVMFWVKQKPGQGLEWMGYITPYNDGTKYAQKFQGKVTMTSDKSTSTVYMELSSLTSEDTAVYYCARYDYEGSFDYWGQGTLVTVSS
VL: DIQMTQSPSSLSASVGDRVTITCRASQDISNYLNWYQQKPGKAPKLLMRYTSRFHSGVPSRFSGSGSGTDFTLTISSLEQEDFATYYCQQGNTFPPTSGGGTKVEIKR
notes: also called [93]; hu1C8-610
Take B4: the EC50 stood at 0.01 nM in experiment [7]; 0.01 nM in [8]; 0.134 nM in [11]; 0.0677 nM in experiment [13]; 0.089 nM in [14]; 0.007 nM in [15]. For the same molecule, the equilibrium dissociation constant (Kd) in [9] was 0.65 nM; in experiment [10] it was 1.25 nM; in experiment [16], 20.8 nM; in experiment [17] it was 22.8 nM. For the same molecule, the off-rate constant (koff) in [9] came out at 0.00307 s⁻¹; in [10], 0.000839 s⁻¹; in [16] it was 0.0205 s⁻¹; in experiment [17] it was 0.0291 s⁻¹. In addition, the kon in [9] is 4.71e+06 M⁻¹ s⁻¹; in [10], 673000 M⁻¹ s⁻¹; in experiment [16] it was 988000 M⁻¹ s⁻¹; in experiment [17], 1.28e+06 M⁻¹ s⁻¹. Also, in experiment [12], the binding result was “no binding (tested: 3 µg/ml (highest concentration))”.

B5: 1C8-25 hIgG1 (antibody, V domains shown)
VH: QVQLVQSGAEVKKPGASVKVSCKASGYTFTNYVMHWVRQAPGQRLEWMGYILPYNDGTKYSQKFQGRVTITRDTSASTAYMELSSLRSEDTAVYYCARYDWEGSFDYWGQGTTVTVSS
VL: B4 VL with S30G, P44V, F54L, E79Q, Q80P, N92F, S98F, V104L
notes: also called [95]
Regarding B5, the binding result in experiment [18], in experiment [19] and in experiment [20] was “binds” in each case.

B6: 1C8-27 hIgG1 (antibody, V domains shown)
VH: B5 VH
VL: B4 VL with R24A, P44V, F54L, E79Q, Q80P, T93R, S98F, V104L
notes: also called [96]
Take B6: the binding result in experiment [18], in experiment [19] and in experiment [20] was “binds” in each case.

A word on the EC50: it is the concentration needed to bring the measured effect to its halfway point. As a reminder, the Kd is the free concentration of one partner at which half of the binding sites on the other are occupied at equilibrium, for simple one-to-one binding. What is called koff is the rate constant with which the complex falls apart. Usually kon stands for the second-order rate constant of association.
